Results on six substances are retold here after patent US11306156.

“And” between values parts separate entries of the source, which are not always exact repeats. Identical values can stand only once.

Assay [1] addresses D3H44 light chain Q124R_Q160K_T178R, N-terminal HA or FLAG tag. Put plainly: LCCA, L1:L2 DNA 1:3, SPR of light chain tags; competing light chain m13.
For assay [2], the target named is D3H44 light chain Q124R, N-terminal HA or FLAG tag. Put plainly: LCCA, L1:L2 DNA 1:9, SPR of light chain tags; competing light chain m18.
The target in assay [3] is D3H44 light chain Q124E_V133E, N-terminal HA or FLAG tag. The experiment in a line: LCCA, L1:L2 DNA 1:9, SPR of light chain tags; competing light chain m17.
The target of assay [4] is D3H44 light chain Q124E_Q160E_T178E, N-terminal HA or FLAG tag. The experiment in a line: LCCA, L1:L2 DNA 1:3, SPR of light chain tags; competing light chain m14.
The target in assay [5] is D3H44 light chain Q124E_T180E, N-terminal HA or FLAG tag. The assay is described as above.
In assay [6] the target is D3H44 light chain Q124R, N-terminal HA or FLAG tag. Put plainly: LCCA, L1:L2 DNA 1:3, SPR of light chain tags; competing light chain m18.
Assay [7] deals with D3H44 light chain Q124E_V133E, N-terminal HA or FLAG tag. Put plainly: LCCA, L1:L2 DNA 1:3, SPR of light chain tags; competing light chain m17.
In assay [8] the target is D3H44 light chain Q124R_Q160K_T178R, N-terminal HA or FLAG tag. Put plainly: LCCA, L1:L2 DNA 1:3, SPR of light chain tags; competing light chain m20.
Assay [9] has as its target D3H44 light chain Q124K_T178R, N-terminal HA or FLAG tag. The experiment in a line: LCCA, L1:L2 DNA 1:3, SPR of light chain tags; competing light chain m13.
For assay [10], the target named is D3H44 light chain T178R, N-terminal HA or FLAG tag. Described as above.
Assay [11] has as its target D3H44 light chain Q124R_T178R, N-terminal HA or FLAG tag. Put plainly: LCCA, L1:L2 DNA 1:3, SPR of light chain tags; competing light chain m11.
Assay [12] concerns the target D3H44 light chain Q124R_T178K, N-terminal HA or FLAG tag. The assay is described as above.
The target in assay [13] is D3H44 light chain Q124E_T180E, N-terminal HA or FLAG tag. The experiment in a line: LCCA, L1:L2 DNA 1:3, SPR of light chain tags; competing light chain m10.
The target of assay [14] is D3H44 light chain Q124E_Q160E_T180E, N-terminal HA or FLAG tag. The experiment in a line: LCCA, L1:L2 DNA 1:9, SPR of light chain tags; competing light chain m12.
For assay [15] the target is unchanged. Put plainly: LCCA, L1:L2 DNA 1:3, SPR of light chain tags; competing light chain m16.
Assay [16] deals with D3H44 light chain Q124R_T178R, N-terminal HA or FLAG tag. The experiment in a line: LCCA, L1:L2 DNA 1:9, SPR of light chain tags; competing light chain m11.
Assay [17] has as its target D3H44 light chain Q124E_Q160E_T180E, N-terminal HA or FLAG tag. Put plainly: LCCA, L1:L2 DNA 1:3, SPR of light chain tags; competing light chain m12.
Assay [18] concerns the target D3H44 light chain Q124E_T180E, N-terminal HA or FLAG tag. The experiment in a line: LCCA, L1:L2 DNA 1:3, SPR of light chain tags; competing light chain m15.
Assay [19] deals with D3H44 light chain Q124R_Q160K_T178R, N-terminal HA or FLAG tag. The experiment in a line: LCCA, L1:L2 DNA 1:9, SPR of light chain tags; competing light chain m18.
Assay [20] concerns the target D3H44 light chain Q124E_S176L_T180E, N-terminal HA or FLAG tag. The experiment in a line: LCCA, L1:L2 DNA 1:9, SPR of light chain tags; competing light chain m12.
Assay [21] addresses D3H44 light chain Q124R_T178R, N-terminal HA or FLAG tag. The experiment in a line: LCCA, L1:L2 DNA 1:3, SPR of light chain tags; competing light chain m19.
For assay [22], the target named is D3H44 light chain Q124E_V133E, N-terminal HA or FLAG tag. The experiment in a line: LCCA, L1:L2 DNA 1:3, SPR of light chain tags; competing light chain m14.
For assay [23], the target named is D3H44 light chain Q124R_Q160K_T178R, N-terminal HA or FLAG tag. The experiment in a line: LCCA, L1:L2 DNA 1:3, SPR of light chain tags; competing light chain m18.
Assay [24] addresses D3H44 light chain Q124E_V133E, N-terminal HA or FLAG tag. Put plainly: LCCA, L1:L2 DNA 1:9, SPR of light chain tags; competing light chain m14.
The target of assay [25] is D3H44 light chain Q124E_S176L_T180E, N-terminal HA or FLAG tag. Put plainly: LCCA, L1:L2 DNA 1:3, SPR of light chain tags; competing light chain m12.
In assay [26] the target is D3H44 light chain Q124R_T178R, N-terminal HA or FLAG tag. The experiment in a line: LCCA, L1:L2 DNA 1:9, SPR of light chain tags; competing light chain m19.
For assay [27] the target is unchanged. Put plainly: LCCA, L1:L2 DNA 1:3, SPR of light chain tags; competing light chain m13.
Assay [28] deals with D3H44 light chain Q124K_T178R, N-terminal HA or FLAG tag. The experiment in a line: LCCA, L1:L2 DNA 1:3, SPR of light chain tags; competing light chain m11.
Assay [29] shares this target. Put plainly: LCCA, L1:L2 DNA 1:9, SPR of light chain tags; competing light chain m11.
For assay [30], the target named is D3H44 light chain Q124R_T178K, N-terminal HA or FLAG tag. The assay is described as above.
In assay [31] the target is D3H44 light chain Q124E_Q160E_T180E, N-terminal HA or FLAG tag. Put plainly: LCCA, L1:L2 DNA 1:9, SPR of light chain tags; competing light chain m15.
Assay [32] has as its target D3H44 light chain Q124E_T180E, N-terminal HA or FLAG tag. The experiment in a line: LCCA, L1:L2 DNA 1:3, SPR of light chain tags; competing light chain m12.
For assay [33], the target named is D3H44 light chain Q124E_Q160E_T180E, N-terminal HA or FLAG tag. The experiment in a line: LCCA, L1:L2 DNA 1:9, SPR of light chain tags; competing light chain m16.
The target is the same in assay [34]. Put plainly: LCCA, L1:L2 DNA 1:3, SPR of light chain tags; competing light chain m15.
The target of assay [35] is D3H44 light chain T178R, N-terminal HA or FLAG tag. The experiment in a line: LCCA, L1:L2 DNA 1:3, SPR of light chain tags; competing light chain m11.
The target of assay [36] is D3H44 light chain Q124E_Q160E_T180E, N-terminal HA or FLAG tag. Put plainly: LCCA, L1:L2 DNA 1:3, SPR of light chain tags; competing light chain m10.
Assay [37] addresses D3H44 light chain T178R, N-terminal HA or FLAG tag. The experiment in a line: LCCA, L1:L2 DNA 1:9, SPR of light chain tags; competing light chain m11.
In assay [38] the target is D3H44 light chain Q124E_Q160E_T180E, N-terminal HA or FLAG tag. Put plainly: LCCA, L1:L2 DNA 1:9, SPR of light chain tags; competing light chain m10.

Regarding “D3H44 Fab heavy chain L143E_K145T, C-terminal ABD2-His6 tag”, the H1L1:H1L2 normalized median ratio was 59 share of 100 in assay [1]; 88 share of 100 in [2]; 12 share of 100 in assay [3]; 41 share of 100 in assay [4]; 41 share of 100 in assay [5]; 91 share of 100 in assay [6]. Moreover, the H1L1:H1L2 normalized median ratio was 9 share of 100 in assay [7] and 59 share of 100 in assay [8]. The H1L1:H1L2 normalized median scalar value ln(r1/f1) in assay [1] was 0.33 and 0.38; in assay [2], 1.95; in assay [6], 2.37; in assay [8], 0.37.
As for “D3H44 Fab heavy chain L143E_K145T_Q179E, C-terminal ABD2-His6 tag”, the H1L1:H1L2 normalized median ratio in [9] is 70 share of 100; in assay [10], 60 share of 100; in assay [1], 73 share of 100; in assay [11], 91 share of 100; in assay [12], 83 share of 100 and 33 share of 100; in assay [13], 40 share of 100. The H1L1:H1L2 normalized median ratio in [14] is 22 share of 100; in assay [15] it was 17 share of 100; in [16] it was 78 share of 100; in assay [5], 27 share of 100; in assay [17] it was 9 share of 100; in assay [18] it was 30 share of 100. Besides, the H1L1:H1L2 normalized median scalar value ln(r1/f1) is 0.84 in assay [9]; 0.41 in assay [10]; 1 in assay [1]; 2.27 in assay [11]; 1.62 in assay [12]; 1.29 in assay [16].
As for “D3H44 Fab heavy chain L143E_K145T_Q179E_S188L, C-terminal ABD2-His6 tag”, the H1L1:H1L2 normalized median ratio in [19] is 87 share of 100; in assay [20] it was 10 share of 100; in assay [21] it was 87 share of 100; in assay [22], 11 share of 100; in assay [23], 89 share of 100; in [24] it was 13 share of 100. The H1L1:H1L2 normalized median ratio in assay [25] was 13 share of 100; in [26], 90 share of 100. The H1L1:H1L2 normalized median scalar value ln(r1/f1) is 1.86 in assay [19], 1.9 in assay [21], 2.06 in assay [23] and 2.25 in [26].
Turning to “D3H44 Fab heavy chain L143R, C-terminal ABD2-His6 tag”, the H2L2:H2L1 normalized median ratio in assay [19] is 7 share of 100; in [2], 26 share of 100; in [3], 74 share of 100; in assay [22], 96 share of 100; in [23], 4 share of 100; in assay [6] it was 4 share of 100. Further, the H2L2:H2L1 normalized median ratio is 93 share of 100 in [24] and 96 share of 100 in assay [7].
Regarding “D3H44 Fab heavy chain Q179K, C-terminal ABD2-His6 tag”, the H2L2:H2L1 normalized median ratio in [27] was 4 share of 100; in assay [9] it was 4 share of 100; in [10], 4 share of 100; in assay [1] it was 4 share of 100; in [11], 12 share of 100; in assay [28], 8 share of 100. Further, the H2L2:H2L1 normalized median ratio in assay [12] is 11 share of 100; in [13], 96 share of 100; in assay [14] it was 90 share of 100; in [21], 4 share of 100; in assay [15], 89 share of 100; in assay [16] it was 10 share of 100. Also, the H2L2:H2L1 normalized median ratio in assay [29] was 10 share of 100; in assay [30], 7 share of 100; in assay [5], 96 share of 100; in [31], 90 share of 100; in assay [17] it was 88 share of 100; in assay [25], 96 share of 100. Further, the H2L2:H2L1 normalized median ratio was 96 share of 100 in [32], 93 share of 100 in assay [33], 92 share of 100 in assay [34] and 96 share of 100 in assay [18].
On to “D3H44 Fab heavy chain S186K, C-terminal ABD2-His6 tag”, for which the H2L2:H2L1 normalized median ratio in assay [27] is 6 share of 100; in [10] it was 4 share of 100; in [1], 3 share of 100; in assay [12], 8 share of 100; in assay [35], 9 share of 100; in assay [36] it was 91 share of 100. Also, the H2L2:H2L1 normalized median ratio in assay [13] was 96 share of 100; in assay [20], 91 share of 100; in assay [21], 4 share of 100; in assay [15], 92 share of 100; in assay [37] it was 13 share of 100; in assay [4] it was 99 share of 100. Moreover, the H2L2:H2L1 normalized median ratio was 97 share of 100 in assay [5]; 96 share of 100 in [25]; 94 share of 100 in assay [32]; 9 share of 100 in assay [26]; 87 share of 100 in assay [38]; 1 share of 100 in assay [8].
